# Results: IntAct's records for PubMed 23245941
# B1: Transcriptional coactivator YAP1 (Homo sapiens), P46937-3 (parent)
# chain: MDPGQQPPPQPAPQGQGQPPSQPPQGQGPPSGPGQPAPAATQAAPQAPPAGHQIVHVRGDSETDLEALFNAVMNPKTANVPQTVPMRLRKLPDSFFKPPEPKSHSRQASTDAGTAGALTPQHVRAHSSPASLQLGAVSPGTLTPTGVVSGPAATPTAQHLRQSSFEIPDDVPLPAGWEMAKTSSGQRYFLNHIDQTTTWQDPRKAMLSQMNVTAPTSPPVQQNMMNSASAMNQRISQSAPVKQPPPLAPQSPQGGVMGGSNSNQQQQMRLQQLQMEKERLRLKQQELLRQVRPQELALRSQLPTLEQDGGTQNPVSSPGMSQELRTMTTNSSDPFLNSGTYHSRDESTDSGLSMSSYSVPRTPDDFLNSVDEMDTGDTINQSTLPSQQNRFPDYLEAIPGTNVDLGTLEGDGMNIEGEELMPSLQEALSSDILNDMESVLAATKLDKESFLTWL
# Variants of: B1
# Conditions: with ctnb1_human CTNNB1, P35222
# Chain of ctnb1_human CTNNB1, P35222 (P35222 whole entry): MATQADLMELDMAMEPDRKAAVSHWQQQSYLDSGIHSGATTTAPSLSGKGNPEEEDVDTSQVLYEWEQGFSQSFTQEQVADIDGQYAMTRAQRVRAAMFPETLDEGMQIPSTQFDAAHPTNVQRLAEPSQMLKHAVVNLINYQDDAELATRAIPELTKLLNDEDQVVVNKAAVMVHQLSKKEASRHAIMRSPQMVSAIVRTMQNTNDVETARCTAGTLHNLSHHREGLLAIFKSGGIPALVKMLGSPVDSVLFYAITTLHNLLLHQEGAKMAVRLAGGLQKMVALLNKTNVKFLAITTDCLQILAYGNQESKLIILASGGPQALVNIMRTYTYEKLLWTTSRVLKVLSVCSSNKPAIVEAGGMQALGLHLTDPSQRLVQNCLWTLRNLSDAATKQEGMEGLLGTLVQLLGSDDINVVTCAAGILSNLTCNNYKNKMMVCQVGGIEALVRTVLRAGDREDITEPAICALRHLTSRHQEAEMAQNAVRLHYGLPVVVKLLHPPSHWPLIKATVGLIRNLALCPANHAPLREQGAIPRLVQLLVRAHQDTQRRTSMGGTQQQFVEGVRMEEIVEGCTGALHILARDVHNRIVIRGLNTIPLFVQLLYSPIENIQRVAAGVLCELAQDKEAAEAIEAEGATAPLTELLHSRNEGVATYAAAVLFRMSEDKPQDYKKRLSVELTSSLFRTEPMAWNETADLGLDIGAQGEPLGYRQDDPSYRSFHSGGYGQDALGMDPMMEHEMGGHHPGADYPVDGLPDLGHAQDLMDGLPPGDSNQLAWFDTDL
row,effect of a mutation on the interaction,Variant
1,increasing interaction strength,Y357F
